Experimental data reported in paper PMC3373503, “Ca^2+ Regulates the Drosophila Stoned-A and Stoned-B Proteins Interaction with the C2B Domain of Synaptotagmin-1” (PLoS ONE, 2012).

Key:
Experiment in all cases: pull-down; 1.5 µM GST protein as bait on glutathione resin, 0.25 µM MBP protein as prey; 2 h at 4°C; 10 mM HEPES pH 7.4, 1 mM MgCl2, 1 mg/ml BSA, 1 mM CaCl2 (Ca2+ binding buffer); eluted with glutathione, anti-MBP Western blot, densitometry
[1] = target: GST-ΔW, C2B domain of Synaptotagmin-1 truncated immediately before the WHTL motif (Drosophila) (UniProt P21521)
[2] = target: GST-C2B, C2B domain of Synaptotagmin-1 (wild type) (Drosophila) (UniProt P21521)
[3] = target: T1, GST-C2B, C2B domain of Synaptotagmin-1 (wild type) (Drosophila, UniProt P21521 323-474); settings: both partners purified
T1 construct: Synaptotagmin-1 (SYT-1), Drosophila, C2B domain, printed as 'bases 323–474' (read as residues 323-474), from the Drosophila syt cDNA clone, in pGEX-4T-1; also called GST SYT-1 C2B domain; C2B SYT-1; source: E. coli, purified (glutathione resin, washed free of nucleic acids)

“MBP-C2B, C2B domain of Synaptotagmin-1 (wild type) (from UniProt P21521 323-474) (domain or fragment)” gave a fold binding against binding to GST-C2B [1] of 4 fold.

Work on “MBP-STNA (CCD), coiled-coil domain of Stoned-A (from UniProt Q24211 1-850) (domain or fragment)” yielded a fold binding against binding to GST-C2A [2] of 3 fold, a fold binding in Ca2+ buffer against EGTA buffer [2] of 2.5 fold and a fold binding against binding to GST-C2B [1] greater than 3 fold.

In the case of “MBP-STNB (MHD), µ-homology domain of Stoned-B (from UniProt Q24212 1-1262) (domain or fragment)”, the fold binding against binding to GST-C2A [2] is reported as 4 fold, the fold binding in Ca2+ buffer against EGTA buffer [2] is reported as 4 fold and the fold binding against binding to GST-C2B [1] is reported as greater than 5 fold.

B1: MBP-C2B, C2B domain of Synaptotagmin-1 (wild type) (domain or fragment, Drosophila, UniProt P21521 323-474, looked up)
chain: QEKLGDICFSLRYVPTAGKLTVVILEAKNLKKMDVGGLSDPYVKIAIMQNGKRLKKKKTSIKKCTLNPYYNESFSFEVPFEQIQKICLVVTVVDYDRIGTSEPIGRCILGCMGTGTELRHWSDMLASPRRPIAQWHTLKDPEETDEILKNMK
notes: Synaptotagmin-1 (SYT-1), Drosophila, C2B domain; 'the DNA encoding the C2B domain was also inserted into pMAL-c2X'; also called full length MBP-C2B; wild-type MBP-C2B; source: E. coli, purified (amylose resin, washed free of nucleic acids)
B1: binds [3].
